Test: protease stability score; higher = more stable; yeast display proteolysis, trypsin and chymotrypsin;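 note: relative to predicted unfolded state with 0 unfolded-like and 1 meaning tenfold more protease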

| Sequence | protease stability score |
| --- | --- |
| EEDEEHIRKVIETFREMSETGDEDWSERMADPNARLIVGNKEFHGRERFNEWNRELTERIDHFEVRIRDFEIQGDKLILHVRITIIINGKDIETESHIIMKKVDGRWFMHSLHHK | 0.752 |
| DEIDEISKQMVRDFVHSWRTGDWKVLRELADPHALIIFNGREFHGWEHILRVFLELIRRYKNARVDIEEVIVQGDKIHIHLRIDQGDKSHTVNIHIDIIDGKLKRLEIDVT | 2.27 |
| SDHDEISHDMFRLWLELHLTGDPKVLADLFDPRVRLILEVGDKRIEVHGREEFERWYREEMRHLRIEHIHIEHVEVQGEKVHAIIEVHTHVNGRRHIHKTHITMDFIDGRFKRMKIDVK | 2.14 |
| DEEEEFATRIMKILLKALLTGDETTLKHLIDPHTRFIFVIGEKIVHVHGRDEIAKFWETLRREIRIEDITIDRIRVQGEKVETDGYIHIWIGDKLVDVESHDEWVIVNGRIKHIRMEIK | 1.93 |
| DEEEELLRKLVEELHKALRTGNEHVLRHLIDPHVRIDIDGRELHGREQFVELWKRLVDELRIHDMKIRSIKTQGDFVHSSTELDLEYGDKKFRLTTELDVRSIDGRVKHVSIRYH | 1.53 |
| SEYEEEMRETLELTALYMRTGNEEDMKELMDPDAKIDVGDKHFHGREQVLHVIKHWRSKHIILREVDFQGEYIHSNGQVTTLINGRELDVESRWIILKVDGRWLVHSVLYL | 0.758 |
| DEHTHEAHKFLREYWSNLQTGDEEKIINLVDPRVRMIINGKELHGREEFSKALHDEYRRMGMTIQTFTLQHLEIQGEKVHADVEIITHYDGRHTSIHLHLIVQKINGRWLMREVEIR | 1.32 |
| DERDEHAHHFFELLLKMWETGDEHELIKFFDPDPRFIYNGKELHGREIAEEFIKEWRVHDMRVKRINVQGEKVIFDGIMDGEFNGKRIFIETHIYMTKVNGKWRTKFIEFN | 1.42 |
| SEEDEKSHKLWEEMLEIFMTGDWKRESELADPEARRVFIVDGVNHVFHGRETITEALLRWHKEMRVHDFKLHDRRYQGEKFHVDGIVDGEYNGKKRIYEVEIIIIVVDGRVHSLEFEHK | 0.296 |
| DEHKELHERLLKMWLSIWETGDEERLRRNADPDTRFKHDFNGREETVVGRENVAKVLEDLRRELGIDHVHIRHFDVQGNYVDLTTELHFNGRIVNFHIIIRVVNGKLKEIHFELR | 1.26 |
| DETHKLLEDLTRLFWELTHTGDEEIVEELADPHVRSEINGKERHGREEHVKAWREWRIERMTLRSVSVINGQMSIDGEIVLKIGDKRIETRIEIRIHIVDGVMKSVKIHLE | 0.937 |
| SEDDERWEKFMEELERAAHTGDWRFFKKMIDPEVRIDINGKEIIGMDEYIRHEKERLKRLGHTNVDIQIIIHRTERQGDKLDVDTEIRIHIGDKTITFRMTLILIKVNGVWLIKAMIIH | 1.56 |
| DERSEEVRRLIKNLVDFFHTGDWRLIQDLADPNVRTDVNGVEHHGREEVTKMLEELVRRFRNVRLHIRDHHIQGEWVIVILEFHVGDKSFELHMFALKINGRWTLTSIEVR | 2.37 |
| DETEDTIHEAVKEFVTALMTGDEELLQKLMDPRTRLDYNGREIHGREEVIRLLLEMRIHHVEIKRIEIQGNKVHVDVKVDGEFNGQRRETKTIINATKINGRWVVQELVIR | 2.26 |
| SEEEESARRAWEKILHVLETGDERDSRRLMDPDTKIEQGDKTEHGMEKIAKMITEWRFHDVKLTDMRVIGDKVEIDGTVRGEFDGREYKIHVFILVVKINGRWVIHKTVLG | 1.06 |
| SEDEEFARTAVELVSEAWETGDENLEEHLLDPNVKIDIGDKELHGMESSIKYWREIRIHLLHVEIHSVEFFDGRVILDTRFKFDGDFDGKRIERSSTMIWIAHKVDGRWRVHHMENR | 1.25 |
| SEKEKLYKDMFRLWAENHRTGNEKKLLEMADPNAQFIFNGREFHGRELIKEEIDEWINRIKNVRVDIHRVEIQGEKIHVITRLHINGQDLETKVELIIVDGQLHLERIHID | 0.759 |
| DEETRMSEHAERLLIRSIRTGDFEEITRLADPHVRVHIGDKDIHGRESLSEVLEKTMRKFGVDNVDYKIEDSHTYDGRIDIRGRLEVNGVKREVRFHSLKIDGRWLLTHVEMD | -0.04 |
| SEEEEIRLDLARLWLELVLTGDEQVYEKLADPNVRFDVNGRELHGRETWIDLLLQFKNVVKRIELKRLDVQGDFVVLDTRLRLVVNGRTETYETWIIFYVVNGRIKEVEIRTT | 1.31 |
| SEIEELVERAEKEHLRTLMTGDWRLFEHNLDPNTKLELDYDGRKIERHGRRHMSHYLKELFKSLGIKHMHLEDSHIQGDKLELHLHFHIGDKTRNVIIIVRKVNGQWIVETLIVHEH | 0.829 |
| SKEEHETHRMIEHILKIVKTGDEENIHKNLDPHVRVNVNGRNLHGREEFVRVMYQWWHEAGVDHVHLTDFEIQGDKAHIHIDEHFNGKRHHIEIIAQKVNGKWLMREVIID | 1.39 |
| TEEDHHAKRMTKMWEEALITGNEHLVKEMFDPHARYRQGEWDLVGREEISKFVLTNLEEWRIDHHHTHSLHLQGEKSHVRSRVLGIFDGKRFETHLQVDVEVINGKIHDLTIRIT | 0.678 |
| SDHRRLLEELLKIIIKAMMTGDESTLERMFDPNVRINIDGVDDHGWESFDRMFHELRIDHARVEYIDVVNGRARVHTNFEVHFDGRRIHWETEIVVVIVNGRNREVSIIRH | 0.739 |
| SEEDQHIEEALRRISKVIHTGDEDKLEELVDPHVRLDVGDKVFHGWEDFVRFMTELRFHHMHVTHLETQGDKVRVELSLDREQGDKRKEMHAHIVLEKIDGKWVVREVEMR | 1.35 |
| REQEELMREYYEIHTHVLKTGNEDALEKLLDPNVRIHIDGKELHGMEAWEILNKRFDHIRHSHIHDFRIIGDKLHIDGRQKGVVDGVEREVHVHIVIEKIDGRWKLKSFYFR | 1.2 |

| Sequence | protease stability score |
| --- | --- |
| DEDDEHSEEIAKMWMHLVHTGDFDSETKLVDPHVKFKIDGREIIGREVFMQLMIELRHILRDSKIDDLNRQGEFLHVHGQVHGELIIGDKNFEINHKVEFIIIKVNGRWFAHTIIFR | 1.64 |
| SEEHTIAEEAIKHLIEILETGDFRTLHRMIDPHVRFEYGDKHLHGREILIKWFEEHWEKLGVDKVEVHVKDIEIQGNKAIVIGDIVINGQRKDTVWHLIVINGRIKMIRIEEH | 1.7 |
| SEEEELAMRIAREVLELWYTGDEDRLTELADPNTRVIFQYGDKEISFHGREWYSKIMLEWRIERVDLRSERAIGDKYELDVHFVGHINGKRHNYRFHIHMLVVNGKLKNIEVRVK | 2.2 |
| SEEEEKAKKWLEEVLRAEETGDEEKLLELADPNVRWIFNGVDVIGRKHFERNIRESLEKIPNMRIEHFHLHRMETIDGRIDMETEEDGIINGRDIRTRRRIIVVKVDGRWIIKSVHLI | 0.637 |
| DELKEISDEIVLMFDRAIRTGDEHTMKKLLDPNYLLRVDGVDIVGRERFTEIIRQFDHVDYESHRIRDVSIQGDKIDVDSETDIHFTYNGKRERRTYRVRIIILKINGRWRIHEVHLH | 1.77 |
| SELEEKTEKWARLFWLLYKTGDWETLEKLLDPHVRSEINGKEEHGRENMIRMLVDLLRLLGIDHIELHHIEFVNGKVIIHLSLHAENHSSELIIEVNIINGKIESIRIEVR | 1.09 |
| DEEERLLDHVIKLMLQMHLTGNEEIFLNLADPHAKFYFNGVDLHGMELVSKWESEWLHHIRIRRRHIEDSRIVGDKAHIHVRVDEEIGDKKLDTHYRVDLVVINGRWHSVRIDMR | 1.25 |
| REEEKLWEHIFHLFIEDVLTGDEDRLREMLDPNVRLKAEGHDDHGRESMVKFNEELHKEIRFERIHLRRIHIIDGVSFMDVQIDGTVNGKHRSLESEIRIYIVDGRIRMVELRIR | 1.25 |
| SEDDEKLEQIIELLDKVMKTGDERAYNELMDPNTRYQVGDKEFHGMEWWSEIYSRHEKKLGIEKVEVDIENHHVQGDKVTVHGRVNINGREHEYRFVLTKVDGQWRLREENIK | 1.15 |
| DETDEWAHKLMELILEYWLTGDWDLFNELADPNVKLIINGRESVGREEVREMLERTLKEIRLRRIEIDHVRIYDGRAQTHSRTDGDVNGKVTETHMHLHVLLINGRIRHVEIRLH | 2.02 |
| TEDERDFREFWERWLHNTVTGDEELLSRMMDPHAKLHVGDKENVGMEEAARLFVEISDELRLHSFHIRHEEHQGDKVILHTRMNVRINGKEINFRTVMIVRKIDGRWIIRSFQID | 0.713 |
| SEAEERAEKFIELLTKALLTGDWRMISRMFDPHVRIIIGDKESHGMESLRDTLEHLRFDHINTRIEHVQVQGDWVEIHIRVHMRITVDGKEFHVETQMHYVLIKIDGKWVVREIEIR | 2.44 |
| SDEEEEERRIAHELRHFWETGDEDAFRDMLDPHTRLQIDINGRHFHLHGREHIVRHLSEVWNKFGVKHLKFHDHHVVNGVTHMDGEENIGDKRRRVRIIIIVVNGRVRMVRIQIE | 1.45 |
| HEQEKFVREYFELWVRAFLTGDEDTILDMMDPDVRIIYGDKTVVGWKELHKFLKRVDHARIKFEFRNTRYDENEAEVDGHRIVHLFFDGKIFDITTQIHVHMVKIDGVWTMKTIVNK | 1.55 |
| TEDVRHADEMIERVIESLTTGDEESYKRLLDPDVRVLIGDKRIHGMEAVLEWFRRIDHVQIHDVRVREVEIVNGRADVRMEFDLTHRINGVEHRFKFESEMLLVKIDGQWRLHSDKRI | 1.57 |
| DEDREDVKKYIEDLFHHLETGDFKEIEKNFDPNVRIFIDGRTIHGREEMVRWAEEMRYKLHEVRLHEVETQGEKIHIDLEIDIEIRIGDKRRRIRTRVIIFARKINGRWYVHQTDFR | 2.71 |
| SEDEHMFELARHILEETDRTGDWRELEKNVDPNARLRVDGQRQHGRDSVRLLIERADHIHHRRLETFTVVNGVIHFEMHVHVIINGVPYEVEVHMHALKVDGKWIIKKVEMD | 0.479 |
| DHHEELVERIAREWIHAWKTGDEKRLRELMDPHVRMNFNGQELHGRELVTNFLHEFLERFDHQEHHIKRFTVVNGVMHIDGELDLNFDGRRYRHRVHIHIFVFDGRVKHVEIEIR | 2.29 |
| DEEEEFLHTLLRIFVEALMTGDEELLKKLADPHTKVRFNGQERHGWHAIQWMIEFFKNVRIEIHDMHIQGDKVHIDGRLKQGDKKLEMRIIIVIVNGKVHNEEYDLR | 1.12 |
| TEDETIAELALEEFIRILETGDEDDVNRLLDPHVRVDIDGKEIHGREHVYHHLRNLGVRIKIEWKRIRVVDGKVDSDGHVIERFNGRDIEVKSQFIMRKIDGRWVVHHFTRR | 0.488 |
| DRREEHAVNVFEIMFVLLLTGDETLFDKLFDPHVLFIIGDKEYHGRERFSKEMLRWIEEWRIQEFKIKDVRVVGDKAEIDGRIRGRYGDKETEIELHLIVMKVDGRWLVHSIELV | 1.09 |
| SEDDHELKEELKIIMKSSLTGDEDTLNRLADPHARIHQGEFNLHGREEFSRLFVELRMHDIRIEDYEVIDGRVEVDIRLNIHYNGKRYIKVTRSVFRKVDGRWLIEEVRYD | 0.494 |
| SEHEKHNRDVVRIVLHALLTGDEELFEENADPNVRTEIDVNGKEIQIHGRSKWVEWLRREIERFDHVRIDLKRIDVQGDKLHTDGHLRLKQGDKEITTDVRLHIVVVDGRIDSMEMSVH | 2.1 |
| SEDTEKIRKFEELLIRLLETGDFDTLTRLLDPHVRYVYNGQDFHGWEFLLHYLRELGVKHFHFRDFRIQGDWAHIDSEVVVGDKHYKTRIVLLKFDGRWRLHMIEVV | 2.44 |
| SEDEEIVRHFLEIWIKILKTGDWHSMERLVDPHAKYENEHEVDHGRDSARRFVDELRVTEFRVESVKTQGDKATVHTRMVVHFNGKRIDTETRLHIHKVDGRWVVEIIIVN | 1.43 |

From the NTF2 design screens of Basanta et al. (2020)
